According to patent publication US20100202967A1 (BRACCO IMAGING, published 2010):
Bridge positions count the residues as written; N and C are the ends. Square brackets hold non-standard residues; d marks the D form. * marks the point of attachment. αGalNAc = CC(=O)N[C@@H]1[C@@H](O)[C@@H](O)[C@@H](CO)O[C@@H]1*; Hyp = O=C(O)[C@@H]1C[C@@H](O)CN1; Cha = N[C@@H](CC1CCCCC1)C(=O)O; CF5 = 5-carboxyfluorescein; AEEA = NCCOCCOCC(=O)O

T1: fibrin
T1 chain 1: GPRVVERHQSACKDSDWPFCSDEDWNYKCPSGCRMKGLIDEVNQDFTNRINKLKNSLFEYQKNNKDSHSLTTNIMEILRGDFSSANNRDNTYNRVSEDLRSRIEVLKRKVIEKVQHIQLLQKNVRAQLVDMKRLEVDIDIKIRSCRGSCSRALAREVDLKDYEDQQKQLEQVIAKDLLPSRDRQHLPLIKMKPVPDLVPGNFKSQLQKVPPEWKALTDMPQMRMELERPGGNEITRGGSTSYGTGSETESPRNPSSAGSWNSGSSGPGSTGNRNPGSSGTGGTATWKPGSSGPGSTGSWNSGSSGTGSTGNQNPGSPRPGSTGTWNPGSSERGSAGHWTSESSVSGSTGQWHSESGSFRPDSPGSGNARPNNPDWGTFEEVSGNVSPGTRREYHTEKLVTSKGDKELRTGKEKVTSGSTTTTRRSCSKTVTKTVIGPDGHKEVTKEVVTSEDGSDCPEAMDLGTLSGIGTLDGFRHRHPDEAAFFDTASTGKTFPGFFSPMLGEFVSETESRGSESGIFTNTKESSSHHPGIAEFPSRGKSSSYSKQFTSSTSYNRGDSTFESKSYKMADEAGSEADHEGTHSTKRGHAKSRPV
T1 chain 2: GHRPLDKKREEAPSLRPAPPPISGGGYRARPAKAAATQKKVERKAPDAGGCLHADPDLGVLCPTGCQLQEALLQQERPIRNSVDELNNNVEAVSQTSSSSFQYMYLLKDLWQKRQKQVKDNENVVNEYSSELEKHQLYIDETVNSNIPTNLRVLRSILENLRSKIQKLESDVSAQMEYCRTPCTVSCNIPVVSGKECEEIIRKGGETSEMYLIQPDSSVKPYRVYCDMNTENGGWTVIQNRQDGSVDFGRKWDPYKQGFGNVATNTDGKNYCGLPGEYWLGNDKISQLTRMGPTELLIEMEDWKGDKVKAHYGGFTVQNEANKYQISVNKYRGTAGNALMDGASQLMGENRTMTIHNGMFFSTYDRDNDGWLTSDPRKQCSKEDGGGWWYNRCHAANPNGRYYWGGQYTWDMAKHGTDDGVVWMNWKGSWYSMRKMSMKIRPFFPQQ
T1 chain 3: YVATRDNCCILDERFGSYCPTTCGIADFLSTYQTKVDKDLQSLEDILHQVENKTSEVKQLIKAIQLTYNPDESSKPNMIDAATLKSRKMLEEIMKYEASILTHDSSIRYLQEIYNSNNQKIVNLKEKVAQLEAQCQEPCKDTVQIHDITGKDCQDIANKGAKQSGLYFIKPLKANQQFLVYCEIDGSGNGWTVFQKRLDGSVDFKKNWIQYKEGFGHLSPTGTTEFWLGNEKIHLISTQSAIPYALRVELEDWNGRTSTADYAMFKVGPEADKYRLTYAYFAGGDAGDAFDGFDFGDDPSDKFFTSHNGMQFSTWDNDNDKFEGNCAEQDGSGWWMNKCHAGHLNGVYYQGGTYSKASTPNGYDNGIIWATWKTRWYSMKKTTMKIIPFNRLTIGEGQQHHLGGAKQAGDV

B1: Ac-WQPC*PAESWTFC*WDPGGGK-NH2 (peptide)
peptide: Ac-WQPCPAESWTFCWDPGGGK-NH2
modifications: disulfide 4-12
SMILES: CC(=O)N[C@@H](Cc1c[nH]c2ccccc12)C(=O)N[C@@H](CCC(N)=O)C(=O)N1CCC[C@H]1C(=O)N[C@H]1CSSC[C@@H](C(=O)N[C@@H](Cc2c[nH]c3ccccc23)C(=O)N[C@@H](CC(=O)O)C(=O)N2CCC[C@H]2C(=O)NCC(=O)NCC(=O)NCC(=O)N[C@@H](CCCCN)C(N)=O)NC(=O)[C@H](Cc2ccccc2)NC(=O)[C@H]([C@@H](C)O)NC(=O)[C@H](Cc2c[nH]c3ccccc23)NC(=O)[C@H](CO)NC(=O)[C@H](CCC(=O)O)NC(=O)[C@H](C)NC(=O)[C@@H]2CCCN2C1=O
B2: Ac-RRGGWQPC*PWESWTFC*WDPGGGK-NH2 (peptide)
peptide: Ac-RRGGWQPCPWESWTFCWDPGGGK-NH2
modifications: disulfide 8-16
SMILES: CC(=O)N[C@@H](CCCNC(=N)N)C(=O)N[C@@H](CCCNC(=N)N)C(=O)NCC(=O)NCC(=O)N[C@@H](Cc1c[nH]c2ccccc12)C(=O)N[C@@H](CCC(N)=O)C(=O)N1CCC[C@H]1C(=O)N[C@H]1CSSC[C@@H](C(=O)N[C@@H](Cc2c[nH]c3ccccc23)C(=O)N[C@@H](CC(=O)O)C(=O)N2CCC[C@H]2C(=O)NCC(=O)NCC(=O)NCC(=O)N[C@@H](CCCCN)C(N)=O)NC(=O)[C@H](Cc2ccccc2)NC(=O)[C@H]([C@@H](C)O)NC(=O)[C@H](Cc2c[nH]c3ccccc23)NC(=O)[C@H](CO)NC(=O)[C@H](CCC(=O)O)NC(=O)[C@H](Cc2c[nH]c3ccccc23)NC(=O)[C@@H]2CCCN2C1=O
B3: Ac-S(Galnac)-JWQPC*PWESWTFC*WDPGGGK-NH2 (peptide)
peptide: Ac-S(αGalNAc)[AEEA]WQPCPWESWTFCWDPGGGK-NH2
modifications: disulfide 6-14
SMILES: CC(=O)N[C@H]1[C@@H](OC[C@H](NC(C)=O)C(=O)NCCOCCOCC(=O)N[C@@H](Cc2c[nH]c3ccccc23)C(=O)N[C@@H](CCC(N)=O)C(=O)N2CCC[C@H]2C(=O)N[C@H]2CSSC[C@@H](C(=O)N[C@@H](Cc3c[nH]c4ccccc34)C(=O)N[C@@H](CC(=O)O)C(=O)N3CCC[C@H]3C(=O)NCC(=O)NCC(=O)NCC(=O)N[C@@H](CCCCN)C(N)=O)NC(=O)[C@H](Cc3ccccc3)NC(=O)[C@H]([C@@H](C)O)NC(=O)[C@H](Cc3c[nH]c4ccccc34)NC(=O)[C@H](CO)NC(=O)[C@H](CCC(=O)O)NC(=O)[C@H](Cc3c[nH]c4ccccc34)NC(=O)[C@@H]3CCCN3C2=O)O[C@H](CO)[C@H](O)[C@@H]1O

Legend:
fibrin [1] = target: T1, fibrin; test: fluorescence polarization, direct binding (n = 2)
fibrin [2] = target: T1, fibrin; test: competition fluorescence polarization assay (n = 2)

| Binder | Kd (fibrin [1]) [nM] | Rel IC50 (fibrin [2]) |
| --- | --- | --- |
| Ac-SGSGSGSGWQPCPWESWTFCWDPGGGK(CF5)-NH2 (disulfide 12-20) [Ac-SGSGSGSGWQPC*PWESWTFC*WDPGGGK(CF5)-NH2] | 470 | – |
| Ac-KKGWQPCPWESWTFCWDPGGGK(CF5)-NH2 (disulfide 7-15) [Ac-KKGWQPC*PWESWTFC*WDPGGGK(CF5)-NH2] | 710 | – |
| Ac-KGKGKGWQPCPWESWTFCWDPGGGK(CF5)-NH2 (disulfide 10-18) [Ac-KGKGKGWQPC*PWESWTFC*WDPGGGK(CF5)-NH2] | 760 | – |
| Ac-S(αGalNAc)WQPCPWESWTFCWDPGGGK(CF5)-NH2 (disulfide 5-13) [Ac-S(Galnac)-WQPC*PWESWTFC*WDPGGGK(CF5)-NH2] | 500 | – |
| Ac-GPPGWQPCPAESWTFCWDPGGGK(CF5)-NH2 (disulfide 8-16) [Ac-GPPGWQPC*PAESWTFC*WDPGGGK(CF5)-NH2] | 310 | – |
| Ac-GGRGWQPCPAESWTFCWDPGGGK(CF5)-NH2 (disulfide 8-16) [Ac-GGRGWQPC*PAESWTFC*WDPGGGK(CF5)-NH2] | 520 | – |
| Ac-GPPGWQPCPWESWTFCWDPGGGK(CF5)-NH2 (disulfide 8-16) [Ac-GPPGWQPC*PWESWTFC*WDPGGGK(CF5)-NH2] | 250 | – |
| Ac-SGSGSGSGWQPCPAESWTFCWDPGGGK(CF5)-NH2 (disulfide 12-20) [Ac-SGSGSGSGWQPC*PAESWTFC*WDPGGGK(CF5)-NH2] | 530 | – |
| Ac-WQPCPAESWT[Cha]CWDPGGGK(CF5)-NH2 (disulfide 4-12) [Ac-WQPC*PAESWT-Cha-C*WDPGGGK(CF5)-NH2] | 170 | – |
| Ac-SGSG[AEEA]WQPCPAESWTFCWDPGGGK(CF5)-NH2 (disulfide 9-17) [Ac-SGSGJWQPC*PAESWTFC*WDPGGGK(CF5)-NH2] | 570 | – |
| Ac-RRGGWQPCPAESWTFCWDPGGGK(CF5)-NH2 (disulfide 8-16) [Ac-RRGGWQPC*PAESWTFC*WDPGGGK(CF5)-NH2] | 220 | – |
| Ac-RWQPCPAESWT[Cha]CWDPGGGK(CF5)-NH2 (disulfide 5-13) [Ac-RWQPC*PAESWT-Cha-C*WDPGGGK(CF5)-NH2] | 80 | – |
| Ac-GGRGWQPCPWESWTFCWDPGGGK(CF5)-NH2 (disulfide 8-16) [Ac-GGRGWQPC*PWESWTFC*WDPGGGK(CF5)-NH2] | 290 | – |
| Ac-GWQPCPWESWTFCWDPGGGK(CF5)-NH2 (disulfide 5-13) [Ac-GWQPC*PWESWTFC*WDPGGGK(CF5)-NH2] | 230 | – |
| Ac-SGSG[AEEA]WQPCPWESWTFCWDPGGGK(CF5)-NH2 (disulfide 9-17) [Ac-SGSGJWQPC*PWESWTFC*WDPGGGK(CF5)-NH2] | 450 | – |
| B1 | – | 0.875 ratio to Ac-Seq000-GGGK-NH2 |
| Ac-GPPGWQPCPWESWTFCWDPGGGK-NH2 (disulfide 8-16) [Ac-GPPGWQPC*PWESWTFC*WDPGGGK-NH2] | – | 0.235 ratio to Ac-Seq000-GGGK-NH2 |
| Ac-GGRGWQPCPWESWTFCWDPGGGK-NH2 (disulfide 8-16) [Ac-GGRGWQPC*PWESWTFC*WDPGGGK-NH2] | – | 0.37 ratio to Ac-Seq000-GGGK-NH2 |
| Ac-SGSG[AEEA]WQPCPWESWTFCWDPGGGK-NH2 (disulfide 9-17) [Ac-SGSGJWQPC*PWESWTFC*WDPGGGK-NH2] | – | 0.714 ratio to Ac-Seq000-GGGK-NH2 |
| H-RGWQPCPWESWTFCWDPGGGK-NH2 (disulfide 6-14) [RGWQPC*PWESWTFC*WDPGGGK-NH2] | – | 0.511 ratio to Ac-Seq000-GGGK-NH2 |
| H-RWQPCPWESWTFCWDPGGGK-NH2 (disulfide 5-13) [RWQPC*PWESWTFC*WDPGGGK-NH2] | – | 0.47 ratio to Ac-Seq000-GGGK-NH2 |
| Ac-SGSGSGSGWQPCPWESWTFCWDPGGGK-NH2 (disulfide 12-20) [Ac-SGSGSGSGWQPC*PWESWTFC*WDPGGGK-NH2] | – | 0.527 ratio to Ac-Seq000-GGGK-NH2 |
| Ac-KKGWQPCPWESWTFCWDPGGGK-NH2 (disulfide 7-15) [Ac-KKGWQPC*PWESWTFC*WDPGGGK-NH2] | – | 0.357 ratio to Ac-Seq000-GGGK-NH2 |
| Ac-KGKGKGWQPCPWESWTFCWDPGGGK-NH2 (disulfide 10-18) [Ac-KGKGKGWQPC*PWESWTFC*WDPGGGK-NH2] | – | 0.595 ratio to Ac-Seq000-GGGK-NH2 |
| Ac-S(αGalNAc)WQPCPWESWTFCWDPGGGK-NH2 (disulfide 5-13) [Ac-S(Galnac)-WQPC*PWESWTFC*WDPGGGK-NH2] | – | 0.559 ratio to Ac-Seq000-GGGK-NH2 |
| B2 | – | 0.125 ratio to Ac-Seq000-GGGK-NH2 |
| B3 | – | 1.15 ratio to Ac-Seq000-GGGK-NH2 |
| Ac-WQPC[Hyp]WESWTFCWDPGGGK-NH2 (disulfide 4-12) [Ac-WQPC*-Hypt4-WESWTFC*WDPGGGK-NH2] | – | 0.55 ratio to Ac-Seq000-GGGK-NH2 |
| H-RGWQPCPWESWTFCWDPGGGK(CF5)-NH2 (disulfide 6-14) [RGWQPC*PWESWTFC*WDPGGGK(CF5)-NH2] | 280 | – |
